From patent US20100310640A1
Blank lines part the entries; values can stand above or below the binder they belong to.

Experiments:
Settings in all cases: remark: other sources report otherwise
[1] = target: T1, HLA-DR DRB1*0301 (human); experiment: radioligand inhibition, purified HLA-DR
T1 chain 1: not shown
T1 chain 2: not shown

[2] = target: T2, HLA-DR DRB1*0802 (human); experiment: radioligand inhibition, purified HLA-DR
T2 chain 1: not shown
T2 chain 2: not shown

[3] = target: T3, HLA-DR DRB1*1201 (human); experiment: radioligand inhibition, purified HLA-DR
T3 chain 1: not shown
T3 chain 2: not shown

[4] = target: T4, HLA-DR DRB1*1302 (human); experiment: radioligand inhibition, purified HLA-DR
T4 chain 1: not shown
T4 chain 2: not shown

[5] = target: T5, HLA-DR DRB1*0101 (human); experiment: radiolabeled-peptide inhibition, purified HLA-DR
T5 chain 1: not shown
T5 chain 2: not shown

[6] = target: T1, HLA-DR DRB1*0301 (human); experiment: radiolabeled-peptide inhibition, purified HLA-DR
[7] = target: T6, HLA-DR DRB1*0401 (human); experiment: radiolabeled-peptide inhibition, purified HLA-DR
T6 chain 1: not shown
T6 chain 2: not shown

[8] = target: T7, HLA-DR DRB1*0701 (human); experiment: radiolabeled-peptide inhibition, purified HLA-DR
T7 chain 1: not shown
T7 chain 2: not shown

[9] = target: T4, HLA-DR DRB1*1302 (human); experiment: radiolabeled-peptide inhibition, purified HLA-DR
[10] = target: T8, HLA-DR DRB4*0101 (human); experiment: radiolabeled-peptide inhibition, purified HLA-DR
T8 chain 1: not shown
T8 chain 2: not shown

[11] = target: T9, HLA-DR DRB1*0404 (human); experiment: radioligand competition, purified HLA-DR
T9 chain 1: not shown
T9 chain 2: not shown

[12] = target: T10, HLA-DR DRB1*1101 (human); experiment: radioligand competition, purified HLA-DR
T10 chain 1: not shown
T10 chain 2: not shown

[13] = target: T4, HLA-DR DRB1*1302 (human); experiment: radioligand competition, purified HLA-DR
[14] = target: T8, HLA-DR DRB4*0101 (human); experiment: radioligand competition, purified HLA-DR
[15] = target: T11, HLA-DR DRB1*0405 (human); experiment: radioligand inhibition, purified HLA-DR
T11 chain 1: not shown
T11 chain 2: not shown

[16] = target: T9, HLA-DR DRB1*0404 (human); experiment: radiolabeled-peptide inhibition, purified HLA-DR
[17] = target: T11, HLA-DR DRB1*0405 (human); experiment: radiolabeled-peptide inhibition, purified HLA-DR
[18] = target: T3, HLA-DR DRB1*1201 (human); experiment: radiolabeled-peptide inhibition, purified HLA-DR
[19] = target: T12, HLA-DR DRB5*0101 (human); experiment: radiolabeled-peptide inhibition, purified HLA-DR
T12 chain 1: not shown
T12 chain 2: not shown

[20] = target: T13, HLA-DR molecule DRB1*0101 (human); experiment: radioligand inhibition, purified HLA-DR
T13 chain 1: not shown
T13 chain 2: not shown

[21] = target: T14, HLA-DR molecule DRB1*0404 (human); experiment: radioligand inhibition, purified HLA-DR
T14 chain 1: not shown
T14 chain 2: not shown

[22] = target: T15, HLA-DR molecule DRB1*0405 (human); experiment: radioligand inhibition, purified HLA-DR
T15 chain 1: not shown
T15 chain 2: not shown

[23] = target: T16, HLA-DR molecule DRB1*0701 (human); experiment: radioligand inhibition, purified HLA-DR
T16 chain 1: not shown
T16 chain 2: not shown

[24] = target: T17, HLA-DR molecule DRB5*0101 (human); experiment: radioligand inhibition, purified HLA-DR
T17 chain 1: not shown
T17 chain 2: not shown

[25] = target: T6, HLA-DR DRB1*0401 (human); experiment: radioligand inhibition, purified HLA-DR
[26] = target: T9, HLA-DR DRB1*0404 (human); experiment: radioligand inhibition, purified HLA-DR
[27] = target: T7, HLA-DR DRB1*0701 (human); experiment: radioligand inhibition, purified HLA-DR
[28] = target: T18, HLA-DR DRB1*0901 (human); experiment: radioligand inhibition, purified HLA-DR
T18 chain 1: not shown
T18 chain 2: not shown

[29] = target: T10, HLA-DR DRB1*1101 (human); experiment: radioligand inhibition, purified HLA-DR
[30] = target: T8, HLA-DR DRB4*0101 (human); experiment: radioligand inhibition, purified HLA-DR
[31] = target: T5, HLA-DR DRB1*0101 (human); experiment: radioligand inhibition, purified HLA-DR
[32] = target: HLA-DR DRB3*0101 (human); experiment: radioligand inhibition, purified HLA-DR
[33] = target: T12, HLA-DR DRB5*0101 (human); experiment: radioligand inhibition, purified HLA-DR
[34] = target: T5, HLA-DR DRB1*0101 (human); experiment: radioligand competition, purified HLA-DR
[35] = target: T7, HLA-DR DRB1*0701 (human); experiment: radioligand competition, purified HLA-DR
[36] = target: T3, HLA-DR DRB1*1201 (human); experiment: radioligand competition, purified HLA-DR
[37] = target: T12, HLA-DR DRB5*0101 (human); experiment: radioligand competition, purified HLA-DR
[38] = target: T2, HLA-DR DRB1*0802 (human); experiment: radioligand competition, purified HLA-DR
[39] = target: T19, HLA-DR molecule DRB1*0401 (human); experiment: radioligand inhibition, purified HLA-DR
T19 chain 1: not shown
T19 chain 2: not shown

[40] = target: T20, HLA-DR molecule DRB1*0802 (human); experiment: radioligand inhibition, purified HLA-DR
T20 chain 1: not shown
T20 chain 2: not shown

[41] = target: T21, HLA-DR molecule DRB1*1101 (human); experiment: radioligand inhibition, purified HLA-DR
T21 chain 1: not shown
T21 chain 2: not shown

[42] = target: T22, HLA-DR molecule DRB1*1201 (human); experiment: radioligand inhibition, purified HLA-DR
T22 chain 1: not shown
T22 chain 2: not shown

[43] = target: T23, HLA-DR molecule DRB1*1302 (human); experiment: radioligand inhibition, purified HLA-DR
T23 chain 1: not shown
T23 chain 2: not shown

[44] = target: T24, HLA-DR molecule DRB4*0101 (human); experiment: radioligand inhibition, purified HLA-DR
T24 chain 1: not shown
T24 chain 2: not shown

[45] = target: T1, HLA-DR DRB1*0301 (human); experiment: radioligand competition, purified HLA-DR
[46] = target: T11, HLA-DR DRB1*0405 (human); experiment: radioligand competition, purified HLA-DR
[47] = target: T10, HLA-DR DRB1*1101 (human); experiment: radiolabeled-peptide inhibition, purified HLA-DR

Binder: RWCIPWQRLLLTASL [CEA.10 peptide 9019.0104]
IC50 [1]: 7860 nM
IC50 [2]: 263 nM
IC50 [3]: 1560 nM
IC50 [4]: 2330 nM

Binder: LQGLPREYVNARHCL [9019.0064]
IC50 [5]: 354 nM
IC50 [6]: 9000 nM
IC50 [7]: 201 nM
IC50 [8]: 1900 nM
IC50 [9]: 670 nM
IC50 [10]: 2550 nM

Binder: TAKLTIESTPFNVAE [CEA.33 (peptide 9019.0106)]
IC50 [11]: 41 nM
IC50 [12]: 6000 nM
IC50 [13]: 35 nM
IC50 [14]: 53 nM

Binder: CYGLGMEHLREVRAV [9019.0044]
IC50 [5]: 130 nM
IC50 [6]: 265 nM
IC50 [7]: 1030 nM
IC50 [16]: 493 nM
IC50 [17]: 5120 nM
IC50 [8]: 271 nM
IC50 [18]: 19000 nM
IC50 [10]: 444 nM
IC50 [19]: 3780 nM

Binder: LLTFWNPPTTAKLTI [CEA.24 (peptide 9019.0105)]
IC50 [34]: 6.9 nM
IC50 [11]: 52 nM
IC50 [35]: 3.7 nM
IC50 [12]: 52 nM
IC50 [36]: 5000 nM
IC50 [37]: 13 nM

Binder: PPSMVAAGSVVAAVQ [Cyclin D1.199 (peptide 9019.0170)]
IC50 [34]: 6.8 nM
IC50 [38]: 1400 nM
IC50 [13]: 55 nM
IC50 [14]: 91 nM

Binder: FYTLHVIKSDLVNEE [CEA.119 (peptide 9019.0114)]
IC50 [45]: 80 nM
IC50 [11]: 169 nM
IC50 [46]: 41 nM
IC50 [35]: 56 nM
IC50 [14]: 22 nM
IC50 [37]: 4500 nM

Binder: GMSYLEDVRLVHRDL [9019.0002]
IC50 [6]: 27 nM
IC50 [17]: 4320 nM
IC50 [8]: 5410 nM
IC50 [47]: 244 nM
IC50 [9]: 3790 nM
IC50 [10]: 2540 nM

Binder: PESFDGDPASNTAPL [9019.0048]
IC50 [6]: 989 nM
IC50 [16]: 9020 nM
IC50 [8]: 2820 nM
IC50 [47]: 12600 nM
IC50 [9]: 3900 nM

Next, values leading:

IC50 [15]: 34 nM
IC50 [2]: 260 nM
Binder: LKSGMKELAVFREKV [Peptide 9019.0185]

IC50 [20]: 7.7 nM
IC50 [21]: 29 nM
IC50 [22]: 110 nM
IC50 [23]: 18 nM
IC50 [24]: 4000 nM
Binder: ERGPLEHLYSLHIPN [Peptide 9019.0190 (IGFBP2.249)]

IC50 [25]: 840 nM
IC50 [26]: 78 nM
IC50 [15]: 1300 nM
IC50 [27]: 80 nM
IC50 [2]: 9 nM
IC50 [28]: 6940 nM
IC50 [29]: 21 nM
IC50 [3]: 42 nM
IC50 [4]: 270 nM
IC50 [30]: 18 nM
Binder: HNQVRQVPLQRLRIV [Her/neu.88]

IC50 [31]: 2490 nM
IC50 [26]: 3190 nM
IC50 [3]: 1860 nM
IC50 [32]: 18900 nM
IC50 [30]: 5310 nM
Binder: CHLFYNEQQEARGVH [Peptide 9019.0023]

IC50 [31]: 26 nM
IC50 [1]: 6220 nM
IC50 [25]: 38 nM
IC50 [26]: 62 nM
IC50 [15]: 151 nM
IC50 [27]: 309 nM
IC50 [2]: 376 nM
IC50 [28]: 2320 nM
IC50 [29]: 125 nM
IC50 [30]: 351 nM
IC50 [33]: 26 nM
Binder: RPRFRELVSEFSRMA [Peptide 9019.0095]

IC50 [20]: 17 nM
IC50 [21]: 8.2 nM
IC50 [24]: 94 nM
Binder: LREVRAVTSANIQEF [Peptide 9019.0046 (Her2/neu.350)]

IC50 [39]: 840 nM
IC50 [21]: 78 nM
IC50 [22]: 1300 nM
IC50 [23]: 80 nM
IC50 [40]: 85 nM
IC50 [41]: 21 nM
IC50 [42]: 42 nM
IC50 [43]: 270 nM
IC50 [44]: 18 nM
Binder: HNQVRQVPLQRLRIV [Peptide 9019.0034 (Her2/neu.88)]

IC50 [34]: 44 nM
Binder: VAAVQGLNLRSPNNF [Cyclin D1.209 (peptide 9019.0171)]

IC50 [22]: 34 nM
IC50 [40]: 260 nM
Binder: LKSGMKELAVFREKV [Peptide 9019.0185 (IGFBP2.184)]
